± gives the standard deviation of the averaged measurements.
B1: library; a variant is named by its letters at N, in order (parent)
chain: GCUGUCACCGGUGCUUGGUACGUUAUAUUCAGCCGGUCUGAUGAGUCUNNNNNNAGACGAAACAGC

Key:
(6R,S)-folinic acid [1] = variants of: B1; assay: FACS-Seq fitted mean relative fluorescence mCherry/BFP without ligand (log10 relative fluorescence); HEK293T overexpressing SLC46A1; higher = higher reporter protein expression; conditions: without (6R,S)-folinic acid; ligand present: no
In short: (§1)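 Cells were sorted into 6 bins on the mCherry/BFP ratio after 48 h with or without ligand. These were enriched HEK293T cells transduced by lentivirus with a ribozyme-switch mCherry reporter plus an EF1α-BFP marker. Fluorescence was obtained by fitting a normal distribution to sequencing-derived bin counts. Counts came from MiSeq sequencing of PCR-amplified, barcoded genomic DNA, binned by log10(mCherry/BFP), with means scaled to five spiked-in control ribozymes.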

(6R,S)-folinic acid [2] = variants of: B1; assay: normalized RNA/DNA level without ligand (relative to sTRSVctl = 100) (log10 (% of sTRSVctl)); HEK293T overexpressing SLC46A1; higher = less ribozyme self-cleavage, higher mRNA level; conditions: without (6R,S)-folinic acid; ligand present: no
Protocol: (§2)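 Hammerhead (sTRSV) ribozyme switch libraries with a ligand aptamer grafted on stem I and a randomized N4-6 loop II, cloned into the 3' UTR of mCherry and transiently transfected into HEK293T cells; RNA-Seq 72 h post transfection with ligand added 1 h before transfection; RNA read count / plasmid DNA read count normalized to the non-cleaving sTRSVctl (x100), log10; sequences with >100 DNA reads. FACS-Seq: lentiviral library sorted into 6 bins after 48 h ligand, log-normal fit mean of mCherry/BFP scaled to controls. Printed sequences are partial switch sequences.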

(6R,S)-folinic acid [3] = variants of: B1; assay: FACS-Seq fitted mean relative fluorescence mCherry/BFP with ligand (log10 relative fluorescence); HEK293T overexpressing SLC46A1; ligand concentration (+) FACS-Seq: 6 mM; higher = higher reporter protein expression; conditions: with (6R,S)-folinic acid; ligand present: yes
In short: as §1

(6R,S)-folinic acid [4] = variants of: B1; assay: normalized RNA/DNA level with ligand (relative to sTRSVctl = 100) (log10 (% of sTRSVctl)); HEK293T overexpressing SLC46A1; ligand concentration (+) RNA-Seq: 6 mM; higher = less ribozyme self-cleavage, higher mRNA level; conditions: with (6R,S)-folinic acid; ligand present: yes
Protocol: as §2

| Variant | FACS-Seq fitted mean (log10) ((6R,S)-folinic acid [1]) | normalized RNA/DNA level without ligand (log10) ((6R,S)-folinic acid [2]) | FACS-Seq fitted mean (log10) ((6R,S)-folinic acid [3]) | normalized RNA/DNA level with ligand (log10) ((6R,S)-folinic acid [4]) |
| --- | --- | --- | --- | --- |
| GCUGUCACCGGUGCUUGGUACGUUAUAUUCAGCCGGUCUGAUGAGUCUAAUAGUAGACGAAACAGC | 0.361 ± 0.12 | 1.928 ± 0.0047 | 0.623 ± 0.097 | 1.978 ± 0.018 |
| GCUGUCACCGGUGCUUGGUACGUUAUAUUCAGCCGGUCUGAUGAGUCUGAUAGGAGACGAAACAGC | 0.0382 ± 0.037 | 1.921 ± 0.013 | 0.234 ± 0.004 | 2.01 ± 0.022 |
| GCUGUCACCGGUGCUUGGUACGUUAUAUUCAGCCGGUCUGAUGAGUCUGAUAGUAGACGAAACAGC | 0.846 ± 0.085 | 1.963 ± 0.018 | 0.563 ± 0.078 | 2 ± 0.022 |
| GCUGUCACCGGUGCUUGGUACGUUAUAUUCAGCCGGUCUGAUGAGUCUGAUAUAAGACGAAACAGC | 0.295 ± 0.015 | 1.96 ± 0.005 | 0.482 ± 0.11 | 2 ± 0.028 |
| GCUGUCACCGGUGCUUGGUACGUUAUAUUCAGCCGGUCUGAUGAGUCUGAUAUGAGACGAAACAGC | 0.0919 ± 0.075 | 1.919 ± 0.005 | 0.0285 ± 0.14 | 2 ± 0.038 |
| GCUGUCACCGGUGCUUGGUACGUUAUAUUCAGCCGGUCUGAUGAGUCUAAUAUAAGACGAAACAGC | 0.602 ± 0.02 | 1.95 ± 0.0055 | 0.4362 ± 0.00063 | 1.99 ± 0.039 |
| GCUGUCACCGGUGCUUGGUACGUUAUAUUCAGCCGGUCUGAUGAGUCUAAUAUGAGACGAAACAGC | 0.207 ± 0.053 | 1.895 ± 0.0025 | 0.137 ± 0.061 | 1.99 ± 0.034 |
| GCUGUCACCGGUGCUUGGUACGUUAUAUUCAGCCGGUCUGAUGAGUCUAAUAUCAGACGAAACAGC | 0.448 ± 0.061 | 2.03 ± 0.042 | 0.348 ± 0.12 | 2.02 ± 0.048 |
| GCUGUCACCGGUGCUUGGUACGUUAUAUUCAGCCGGUCUGAUGAGUCUUAUAGGAGACGAAACAGC | 0.0298 ± 0.024 | 1.58 ± 0.029 | 0.514 ± 0.24 | 1.92 ± 0.02 |
| GCUGUCACCGGUGCUUGGUACGUUAUAUUCAGCCGGUCUGAUGAGUCUCAUAUGAGACGAAACAGC | 0.419 ± 0.028 | 2.026 ± 0.0042 | 0.496 ± 0.28 | 2.01 ± 0.023 |
| GCUGUCACCGGUGCUUGGUACGUUAUAUUCAGCCGGUCUGAUGAGUCUCAUAUCAGACGAAACAGC | -0.161 ± 0.056 | 2.078 ± 0.0032 | -0.426 ± 0.011 | 2.03 ± 0.034 |
